# Experimental data reported in the supplement of paper PMC7877785.
# ± gives the uncertainty stated by the source.
# Assay: self-splicing fitness, log relative to wild type (ln ratio); higher = more splicing; Tetrahymena group I intron in knt gene, E. coli kanamycin selection, DiMSum; sequences stand for … in CUCUCU…GGAGGGAAAAGUUAUCAGGCAUGCACCUGGUAGCUAGUCUUUAAACCAAUAGAUUGCAUCGGUUUAAAAGGCAAGACCGUCAAAUUGCGGGAAAGGGGUCAACAGCCGUUCAGUACCAAGUCUCAGGGGAAACUUUGAGAUGGCCUUGCAAAGGGUAUGGUAAUAAGCUGACGGACAUGGUCCUAACCACGCAGCCAAGUCCUAAGUCAACAGAUCUUCUGUUGAUAUGGAUGCAGUUCACAGACUAAAUGUCGGUCGGGGAAGAUGUAUUCUUCUCAUAAGAUAUAGUCGGACCUCUCCUUAAUGGGAGCUAGCGGAUGAAGUGAUGCAACACUGGAGCCGCUGGGAACUAAUUUGUAUGCGAAAGUAUAUUGAUUAGUUUUGGAGUACUCGUGGUCG
# Method in brief: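 Six replicate transformations of E. coli BL21(DE3) with a pET-22b(+) library were grown overnight at 37°C or 30°C. The library randomised all eight P1ex-region intron nucleotides, the intron lying in the knt kanamycin-resistance gene, and plates were LB agar with or without 25 μg/mL kanamycin plus 100 μg/mL carbenicillin, 50 μM IPTG and 0.2% rhamnose. Pooled colonies were amplicon-sequenced on an Illumina HiSeq 2500, and fitness is the DiMSum error-weighted combination of wild-type-normalised replicate fold changes, kanamycin versus none.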
Sequence,self-splicing fitness (ln) (30 °C),self-splicing fitness (ln) (37 °C)
AAAAAGCAAUAUUACGACAU,0.00477 ± 0.011,0.11 ± 0.032
AAAAAGCAAUAUUACGACUC,0.0755 ± 0.088,0.373 ± 0.11
AAAAAGCAAUAUUACGACUG,-1.14 ± 0.098,-0.0274 ± 0.11
AAAAAGCAAUAUUACGAGAU,-2.85 ± 0.13,-1.86 ± 0.2
AAAAAGCAAUAUUACGAGGC,-4.09 ± 0.33,-2.57 ± 0.32
AAAAAGCAAUAUUACGAGUU,-1.33 ± 0.065,-0.488 ± 0.07
AAAAAGCAAUAUUACGAUAC,-2.28 ± 0.16,-0.696 ± 0.13
AAAAAGCAAUAUUACGCAUA,-1.5 ± 0.11,-0.715 ± 0.1
AAAAAGCAAUAUUACGCCGC,-2.19 ± 0.43,-2.01 ± 0.33
AAAAAGCAAUAUUACGCGUA,-1.61 ± 0.083,-0.153 ± 0.08
AAAAAGCAAUAUUACGCUUU,-4.64 ± 0.27,-2.32 ± 0.19
AAAAAGCAAUAUUACGGCCU,-0.199 ± 0.069,0.253 ± 0.095
AAAAAGCAAUAUUACGUACU,0.142 ± 0.054,0.151 ± 0.077
AAAAAGCAAUAUUACGUAGG,-1.7 ± 0.093,-1.66 ± 0.11
AAAAAGCAAUAUUACGUCAG,-2.75 ± 0.15,-1.14 ± 0.13
AAAAAGCAAUAUUACGUGGA,-2.42 ± 0.1,-1.86 ± 0.1
AAAAAGCAAUAUUACGUGGC,-3.59 ± 0.21,-1.59 ± 0.14
AAAAAGCAAUAUUACGUUCG,-0.479 ± 0.078,-1.04 ± 0.1
AAAAAGCAAUAUUACGUUGU,-3.71 ± 0.15,-2.01 ± 0.14
AAACAGCAAUAUUACGAAAA,-2.95 ± 0.15,-1.8 ± 0.14
AAACAGCAAUAUUACGAAUC,-4.43 ± 0.46,-1.54 ± 0.22
AAACAGCAAUAUUACGACGA,-1.32 ± 0.096,0.0122 ± 0.099
AAACAGCAAUAUUACGACGC,-1.43 ± 0.081,-0.718 ± 0.096
AAACAGCAAUAUUACGAGGA,-4 ± 0.26,-1.97 ± 0.13
AAACAGCAAUAUUACGAGUG,-2.71 ± 0.075,-1.8 ± 0.074
AAACAGCAAUAUUACGAUAG,-2.76 ± 0.1,-2.14 ± 0.12

Sequence,self-splicing fitness (ln) (30 °C),self-splicing fitness (ln) (37 °C)
AAACAGCAAUAUUACGAUUU,-0.279 ± 0.053,0.219 ± 0.071
AAACAGCAAUAUUACGCAAC,-3.6 ± 0.29,-1.93 ± 0.17
AAACAGCAAUAUUACGCACU,-0.221 ± 0.079,0.0967 ± 0.091
AAACAGCAAUAUUACGCAGU,-3.42 ± 0.15,-1.44 ± 0.12
AAACAGCAAUAUUACGCGCA,-0.282 ± 0.081,-0.19 ± 0.087
AAACAGCAAUAUUACGCGCC,-1.13 ± 0.1,-0.456 ± 0.12
AAACAGCAAUAUUACGGACU,-0.635 ± 0.097,-0.406 ± 0.12
AAACAGCAAUAUUACGGGAG,-3.34 ± 0.13,-2.66 ± 0.14
AAACAGCAAUAUUACGGUAC,-3.52 ± 0.2,-2.75 ± 0.26
AAACAGCAAUAUUACGUACG,-2.54 ± 0.11,-0.985 ± 0.11
AAACAGCAAUAUUACGUAUG,-2.03 ± 0.094,-1.31 ± 0.11
AAACAGCAAUAUUACGUCAC,-4.1 ± 0.23,-2.59 ± 0.2
AAACAGCAAUAUUACGUGAG,-0.858 ± 0.04,-0.552 ± 0.064
AAAGAGCAAUAUUACGAAUA,-1.42 ± 0.35,–
AAAGAGCAAUAUUACGAAUC,-3.27 ± 0.24,-2.7 ± 0.26
AAAGAGCAAUAUUACGACAA,-2.27 ± 0.23,-2.95 ± 0.38
AAAGAGCAAUAUUACGACGG,-3.27 ± 0.29,-2.83 ± 0.43
AAAGAGCAAUAUUACGACUG,-3 ± 0.32,–
AAAGAGCAAUAUUACGAGGG,-3.04 ± 0.27,-2.34 ± 0.39
AAAGAGCAAUAUUACGAUCG,-2.55 ± 0.12,-1.29 ± 0.15
AAAGAGCAAUAUUACGCCGU,-3.07 ± 0.48,-1.74 ± 0.42
AAAGAGCAAUAUUACGCGUG,-3.02 ± 0.14,-1.79 ± 0.12
AAAGAGCAAUAUUACGGAAU,-2.79 ± 0.19,-2.57 ± 0.27
AAAGAGCAAUAUUACGGAGC,-2.8 ± 0.39,–
AAAGAGCAAUAUUACGGAUA,-2.75 ± 0.27,-1.92 ± 0.3
AAAGAGCAAUAUUACGGAUU,-0.754 ± 0.18,-1.45 ± 0.17

Sequence,self-splicing fitness (ln) (30 °C),self-splicing fitness (ln) (37 °C)
AAAGAGCAAUAUUACGGCAG,-4.02 ± 0.42,-3.07 ± 0.29
AAAGAGCAAUAUUACGGCCU,-2.16 ± 0.13,-0.199 ± 0.13
AAAGAGCAAUAUUACGGGGA,-2.48 ± 0.35,-1.81 ± 0.28
AAAGAGCAAUAUUACGUAAU,-2.16 ± 0.15,0.0244 ± 0.13
AAAGAGCAAUAUUACGUCCA,-1.76 ± 0.33,-1.93 ± 0.36
AAAGAGCAAUAUUACGUCUC,-3.18 ± 0.29,-1.47 ± 0.18
AAAGAGCAAUAUUACGUGAC,-4.21 ± 0.21,-2.62 ± 0.2
AAAGAGCAAUAUUACGUGCA,-2.3 ± 0.14,-1.19 ± 0.13
AAAGAGCAAUAUUACGUUAG,-3.49 ± 0.15,-3.11 ± 0.25
AAAGAGCAAUAUUACGUUAU,-3.71 ± 0.25,-2.49 ± 0.23
AAAUAGCAAUAUUACGAAAA,-2.66 ± 0.35,-1.47 ± 0.22
AAAUAGCAAUAUUACGAACA,-0.981 ± 0.14,-0.0486 ± 0.12
AAAUAGCAAUAUUACGAAUC,-2.64 ± 0.18,-2.29 ± 0.22
AAAUAGCAAUAUUACGAGUG,-2.42 ± 0.12,-0.435 ± 0.1
AAAUAGCAAUAUUACGAUAC,-2.95 ± 0.22,-2.64 ± 0.36
AAAUAGCAAUAUUACGCAAC,-3.16 ± 0.37,-1.53 ± 0.26
AAAUAGCAAUAUUACGCCUA,-0.886 ± 0.13,-0.23 ± 0.13
AAAUAGCAAUAUUACGCGAU,-3.4 ± 0.2,-1.47 ± 0.14
AAAUAGCAAUAUUACGCGCU,-0.381 ± 0.15,-0.606 ± 0.19
AAAUAGCAAUAUUACGCGUU,-2.16 ± 0.087,-1.22 ± 0.092
AAAUAGCAAUAUUACGCUAC,–,-1.68 ± 0.3
AAAUAGCAAUAUUACGCUAG,-1.55 ± 0.13,-1 ± 0.15
AAAUAGCAAUAUUACGGAGG,-3.39 ± 0.2,-2.86 ± 0.26
AAAUAGCAAUAUUACGGGCC,-2.49 ± 0.32,-2.55 ± 0.41
AAAUAGCAAUAUUACGGUAA,-2.14 ± 0.21,-1.5 ± 0.16
